Data taken from the supplement of paper PMC10126150.
± gives the standard deviation of the averaged measurements.

System: ATP
Assay: switch fluorescence ratio, 500 uM ATP over buffer (Cy3 cluster intensity, sum of 5 cycles each) (fold (ratio)); higher = stronger signal-on switching upon ATP binding; sequences stand for … in TCGTCGGCAGCGTCAGATGTGTATAAGAGACAGTTTTTTTTTTTTTTTTTTTTTTTTT…TC
Details: aptamer strand: ATP DNA aptamer (quencher-CACCTGGGGGAGTATTGCGGAGGAAGG + anchor), 100 nM annealed; ATP concentration: 500 uM
Outline: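 Between each of five buffer/ATP cycles, the flow-cell was stripped with NaOH and re-annealed. Each cycle imaged Cy3-labelled switching-strand clusters, annealed to 100 nM quencher-labelled ATP aptamer on a modified Illumina MiSeq flow-cell, first in selection buffer and then after 15 min with 500 uM ATP at 22 °C. The fluorescence ratio is summed target-cycle over summed buffer-cycle Cy3 intensity per cluster, averaged per switch-domain sequence, with clusters outside 100-1000 RFU excluded.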
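Also: ATP exposure 15 min at 22 °C before imaging.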

Sequence | switch fluorescence ratio
AAGGCAAGAT | 1.04 ± 0.064
AAGGCAAGGG | 1.01 ± 0.028
AAGGCAAGTG | 0.989 ± 0.054
AAGGCCTTCT | 0.994 ± 0.011
AAGGCGGATA | 0.96 ± 0.013
AAGGCGGGG | 0.991 ± 0.011
AAGGCGTACT | 1.03 ± 0.026
AAGGCTAAAA | 1.016 ± 0.0059
AAGGCTAAGC | 1.024 ± 0.0026
AAGGCTGAGT | 1 ± 0.0011
AAGGCTGGCT | 0.99 ± 0.027
AAGGCTGTAC | 1.71 ± 0.1
AAGGCTGTCT | 1.02 ± 0.049
AAGGCTTCGG | 0.998 ± 0.032
AAGGCTTTCT | 1.02 ± 0.032
AAGGGAAATT | 0.983 ± 0.025
AAGGGAATGA | 0.987 ± 0.016
AAGGGACAGC | 1.03 ± 0.021
AAGGGACATT | 1.01 ± 0.012
AAGGGACTCG | 1.04 ± 0.059
AAGGGAGCAA | 1.09 ± 0.037
AAGGGAGTCA | 0.992 ± 0.031
AAGGGATTCT | 1.03 ± 0.084
AAGGGATTTA | 1.04 ± 0.034
AAGGGCAACG | 0.974 ± 0.063

Sequence | switch fluorescence ratio
AAGGGCGATT | 1.02 ± 0.055
AAGGGCGTGG | 0.982 ± 0.02
AAGGGCTATT | 1 ± 0.029
AAGGGCTCAA | 1.02 ± 0.011
AAGGGCTTAC | 1.135 ± 0.0058
AAGGGCTTTT | 1.01 ± 0.036
AAGGGGAATT | 1.01 ± 0.049
AAGGGGACGA | 0.978 ± 0.033
AAGGGGAGGG | 1 ± 0.013
AAGGGGATCG | 1.03 ± 0.027
AAGGGGATTT | 0.975 ± 0.016
AAGGGGCAAT | 1.01 ± 0.055
AAGGGGCGCT | 1.01 ± 0.039
AAGGGGCTTA | 0.961 ± 0.013
AAGGGGGAAC | 1.002 ± 0.0052
AAGGGGGCTT | 0.9943 ± 0.0025
AAGGGGGGGG | 1.02 ± 0.055
AAGGGGGGTC | 0.991 ± 0.042
AAGGGGGGTG | 1.03 ± 0.048
AAGGGGGTCT | 1.02 ± 0.083
AAGGGGGTTT | 1 ± 0.036
AAGGGGTATC | 1.02 ± 0.05
AAGGGGTCTG | 0.979 ± 0.02
AAGGGGTTGA | 1.01 ± 0.023
AAGGGGTTTC | 0.9746 ± 0.0067

Sequence | switch fluorescence ratio
AAGGGTGATG | 1 ± 0.049
AAGGGTGGGT | 0.9876 ± 0.0045
AAGGGTTGCT | 1.01 ± 0.042
AAGGGTTGTC | 0.999 ± 0.088
AAGGGTTTAC | 0.995 ± 0.035
AAGGGTTTAG | 1 ± 0.067
AAGGTAAGAG | 0.999 ± 0.037
AAGGTAAGGT | 1 ± 0.023
AAGGTAGGCG | 0.987 ± 0.011
AAGGTAGTCT | 1 ± 0.024
AAGGTATGTC | 1.01 ± 0.063
AAGGTATGTG | 1.025 ± 0.0038
AAGGTCGCGG | 1 ± 0.017
AAGGTCGTCA | 0.9613 ± 0.0023
AAGGTGCAAG | 1.03 ± 0.053
AAGGTGGATG | 0.992 ± 0.021
AAGGTGGGAC | 1.02 ± 0.021
AAGGTGGGTA | 0.99 ± 0.031
AAGGTGGGTG | 0.999 ± 0.029
AAGGTGTAGC | 0.9839 ± 0.0091
AAGGTGTCGA | 0.967 ± 0.019
AAGGTGTGTT | 1.08 ± 0.068
AAGGTGTTTC | 1.083 ± 0.0066
AAGGTTCCTG | 0.98 ± 0.03
AAGGTTGCGT | 0.986 ± 0.04

Sequence | switch fluorescence ratio
AAGGTTTCAT | 1 ± 0.031
AAGGTTTCGG | 0.985 ± 0.038
AAGGTTTTAA | 0.9825 ± 0.0066
AAGGTTTTTG | 1 ± 0.03
AAGTAAGTTG | 0.9806 ± 0.0064
AAGTACAGCG | 1.03 ± 0.026
AAGTACGAGG | 1.27 ± 0.17
AAGTACGCTG | 1 ± 0.11
AAGTACGGTG | 1.19 ± 0.089
AAGTAGCGCT | 1 ± 0.024
AAGTAGCTAT | 1.01 ± 0.043
AAGTAGGAGT | 0.994 ± 0.034
AAGTAGGGGC | 1.02 ± 0.015
AAGTAGGGTA | 1.03 ± 0.025
AAGTAGTGCG | 1.01 ± 0.041
AAGTAGTTTT | 0.985 ± 0.024
AAGTATAAGG | 0.994 ± 0.011
AAGTATATGA | 1.004 ± 0.0083
AAGTATATTT | 1.001 ± 0.0047
AAGTATGGGG | 0.978 ± 0.021
AAGTATGTTC | 1.004 ± 0.0014
AAGTATTTAG | 0.994 ± 0.024
AAGTATTTTT | 1.018 ± 0.0058
AAGTCAGGGG | 1.05 ± 0.13
AAGTCATGGG | 1.01 ± 0.031

Sequence | switch fluorescence ratio
AAGTCCGGGA | 0.998 ± 0.035
AAGTCCGGGC | 1.02 ± 0.018
AAGTCGGATA | 1 ± 0.028
AAGTCTTTCG | 1.01 ± 0.012
AAGTGCGGGC | 1.04 ± 0.027
AAGTGCTACC | 1.02 ± 0.06
AAGTGCTGTG | 0.996 ± 0.029
AAGTGGAGTC | 1.05 ± 0.085
AAGTGGCCGG | 0.961 ± 0.074
AAGTGGGAAT | 1.02 ± 0.013
AAGTGGGGG | 0.992 ± 0.016
AAGTGGGGTG | 0.982 ± 0.019
AAGTGGGTAT | 1.16 ± 0.23
AAGTGGTTAG | 0.98 ± 0.027
AAGTGTGGGT | 1 ± 0.075
AAGTGTTATT | 0.992 ± 0.026
AAGTTAATGG | 1.015 ± 0.0071
AAGTTACAGT | 1.04 ± 0.036
AAGTTAGGTC | 0.969 ± 0.047
AAGTTATAAC | 0.956 ± 0.067
AAGTTCACGT | 0.996 ± 0.02
AAGTTCGTTT | 0.986 ± 0.026
AAGTTGAAGG | 1 ± 0.013
AAGTTGAGGA | 0.978 ± 0.016
AAGTTGAGTG | 0.9472 ± 0.0088

Sequence | switch fluorescence ratio
AAGTTGCGGA | 0.975 ± 0.019
AAGTTGGGAG | 1 ± 0.019
AAGTTGGGTT | 0.9633 ± 0.0079
AAGTTGTCAA | 1.011 ± 0.0052
AAGTTGTGAC | 0.997 ± 0.028
AAGTTTAGGG | 0.996 ± 0.027
AAGTTTATCT | 0.989 ± 0.02
AAGTTTCACG | 1 ± 0.058
AAGTTTGGTG | 0.986 ± 0.042
AAGTTTGTAG | 1 ± 0.03
AAGTTTTGTT | 0.987 ± 0.023
AATAAAAGGA | 0.997 ± 0.013
AATAAAAGTT | 1.1 ± 0.14
AATAAACAGG | 1.08 ± 0.041
AATAAAGACG | 0.952 ± 0.025
AATAAAGCGT | 0.983 ± 0.028
AATAAATCAT | 0.992 ± 0.024
AATAAATGTA | 1.04 ± 0.048
AATAACACGT | 1 ± 0.026
AATAACTACC | 1.15 ± 0.032
AATAACTGGT | 1.04 ± 0.028
AATAAGAGGA | 1.02 ± 0.026
AATAAGATTT | 1.02 ± 0.026
AATAAGGCAT | 1.01 ± 0.024
AATAAGTATT | 1.024 ± 0.003

Sequence | switch fluorescence ratio
AATAAGTCCT | 1.03 ± 0.038
AATAATATAG | 0.996 ± 0.031
AATAATATTT | 1.01 ± 0.021
AATAATGGGG | 0.981 ± 0.049
AATAATGTGC | 0.987 ± 0.074
AATAATTGAC | 1.099 ± 0.0086
AATACAGAGG | 1.0069 ± 0.00059
AATACCGTTT | 1.05 ± 0.03
AATACTGTCG | 1.01 ± 0.016
AATAGAGTTA | 1.02 ± 0.023
AATAGCAGGA | 1.02 ± 0.02
AATAGCCTTG | 1.02 ± 0.013
AATAGGAATT | 0.9708 ± 0.0059
AATAGGAGAG | 0.987 ± 0.0099
AATAGGCACA | 1.07 ± 0.0015
AATAGGGCTT | 0.978 ± 0.04
AATAGGTTGG | 0.994 ± 0.029
AATATAGATG | 0.9885 ± 0.007
AATATAGGT | 1.02 ± 0.033
AATATATACG | 1.0252 ± 0.00079
AATATATACT | 1.04 ± 0.027
AATATCTGAC | 1.18 ± 0.046
AATATGAG | 1.02 ± 0.018
AATATGCTCC | 1.14 ± 0.064
AATATGGCGT | 1.01 ± 0.029

Sequence | switch fluorescence ratio
AATATTCATT | 0.985 ± 0.069
AATATTCTAG | 0.994 ± 0.019
AATATTGATG | 1.02 ± 0.044
AATATTGCAC | 1.04 ± 0.021
AATATTGGAT | 1.01 ± 0.023
AATATTTCGC | 1.02 ± 0.018
AATATTTGAG | 0.998 ± 0.02
AATATTTGTG | 1.15 ± 0.23
AATCAGAAAG | 1.15 ± 0.24
AATCATCCTC | 1.06 ± 0.043
AATCATGGCG | 0.991 ± 0.07
AATCATGTAG | 1.01 ± 0.011
AATCATTAGC | 0.985 ± 0.049
AATCCCTGGG | 1.07 ± 0.033
AATCCGCGGA | 0.964 ± 0.013
AATCCTGGCG | 1.01 ± 0.032
AATCGCGGCC | 1.032 ± 0.0085
AATCGCGGTA | 1.05 ± 0.033
AATCGGGCGT | 0.982 ± 0.052
AATCGGGCTG | 0.962 ± 0.042
AATCGGGGGT | 1.002 ± 0.0097
AATCGTACAG | 1.07 ± 0.019
AATCGTGGTG | 0.982 ± 0.047
AATCGTGTAT | 0.983 ± 0.035
AATCGTTGCT | 0.952 ± 0.039
